“Also recorded” adds a separate entry of the source. Where two headings read alike, the source gives them in different places.
Legend:
[1] = cited from earlier work; for T1/2 (half-life, deamidation): buffer
[2] = test system: decapeptide RCNSGRFNGG-NH2; experiment: Decapeptide accelerated stability test, potency of intact peptide by HPLC; type: physicochemical
Description: To begin with, a decapeptide was synthesized by request at the Protein Facility of the Iowa State University Office of Biotechnology, using standard peptide synthesis methodology.
Samples containing this decapeptide were prepared under eight different conditions at two different pH values, pH 7 and 4. […] The preparation of these samples is now described. The ratios indicated are molar ratios of organic anion to decapeptide.
Into a sterile 15 mL plastic centrifuge tube (Corning Incorporated, Corning, N.Y.) was placed 0.0021 g decapeptide (Iowa State University, Ames, Iowa) and 7.0 g sterile water (Spectrum Chemicals Mfg. Corp., Gardena, Calif.). The pH was adjusted using 1.0N HCl (Spectrum Chemicals Mfg. Corp., Gardena, Calif.) to a pH of 4. Into a new 15 mL plastic centrifuge tube was placed 3.5 mL of a pH 4 solution. The pH was adjusted using only the necessary amount of 1.0N NaOH (Spectrum Chemicals Mfg. Corp., Gardena, Calif.) to a final pH of 7.
(anion:asparaginyl molar ratio). […] Into a new 15 mL plastic centrifuge tube was placed 3.5 mL of a pH 4 solution. The pH was adjusted using only the necessary amount of 1.0N NaOH to a final pH of 7.
(§1) Into a new 15 mL plastic centrifuge tube was placed 3.5 mL of a pH 4 solution. The pH was adjusted using only the necessary amount of 1.0N NaOH to a final pH of 7.
as §1, §1
Into a sterile 1.5 mL microcentrifuge tube was placed a 0.5 g portion of each sample condition and were placed at −18° C. This was the initial sample. The remaining pH 4 samples were placed at 65° C. until completion of the experiment. The remaining pH 7 samples were placed at 40° C. until completion of the experiment. […] This was the day 1 sample. The frozen initial and day 1 samples were thawed to room temperature, and assayed using HPLC.
The samples at the various timepoints were then analyzed with HPLC using the following conditions.
System: Schimadzu SCL-10A VP with diode array detector
Column: Phenomenex C18 Luna 5 um, 250×4.6 mm
Mobile Phase: Isocratic 90% (0.1%) TFA in water, 10% (0.08%) TFA in acetonitrile
The potency (mg/mL of intact peptide) was determined by integrating under this peak (performed by the instrument), and normalizing according to a standard run of the decapeptide.
The sample stressing and HPLC were applied as above.
(anion:asparaginyl ratio). Into a sterile 15 mL plastic centrifuge tube was placed 0.0021 g decapeptide, 0.0029 g N-acetyl-D-tryptophan (MP Biomedicals, Solon, Ohio) and 7.0 g sterile water. The pH was adjusted using 1.0N HCl to a pH of 4. Into a new 15 mL plastic centrifuge tube was placed 3.5 mL of a pH 4 solution. The pH was adjusted using only the necessary amount of 1.0N NaOH to a final pH of 7. Since the molar ratio of acetyltryptophan to decapeptide is 6:1, and each decapeptide has two asparaginyl residues, the molar ratio of NAT to asparagine is 3:1.
The pH was adjusted using only the necessary amount of 1.0N NaOH to a final pH of 7.

[3] = accepted approximate value, dilute aqueous solution; cited from earlier work
[4] = aqueous solution, pH 7.4, 37° C., Tris-HCl buffer
[5] = pH 7, 24 hours at 40° C., molar ratio anion:Asn 3

| Compound | T1/10 (time to 10% degradation by deamidation) [1, 4] | other results |
| --- | --- | --- |
| 1-Antitrypsin (1QLP): human protein | 6.1 days |  |
| Cl [Hydrochloric, hydrochloric acid] |  | potency remaining ([2]; pH 7, 24 hours at 40° C., HCl control, no organic anion, listed as HCl): less than 7%; potency remaining ([2]; pH 7, 24 hours at 40° C., HCl control, no organic anion, listed as hydrochloric acid control): under 7% |
| CC(=O)N[C@H](Cc1c[nH]c2ccccc12)C(=O)O [N-acetyltryptophanate, N-acetyl-D-tryptophan] |  | potency remaining ([2]; pH 4, stressed at 65° C., anion:Asn 3:1): 74%; Relative potency [2, 5]: 1.028; Relative potency ([2]; pH 7, 24 hours at 40° C., molar ratio anion:Asn 3, listed as N-acetyltryptophan): completely retained; also recorded: no detectable degradation; pKa (first listed) [3]: 3.37 |
| O=C1NS(=O)(=O)c2ccccc21 [Saccharin, 2,3-dihydro-3-oxobenzisosulfonazole] |  | Relative potency ([2]; pH 4, 24 hours at 65° C., anion:Asn 10:1): 87%; Relative potency ([2]; pH 7, 24 hours at 40° C., molar ratio anion:Asn 1): 0.080; Relative potency ([2]; pH 7, 24 hours at 40° C., molar ratio anion:Asn 1, listed as saccharin): much less enhancement; Relative potency [2, 5]: 0.008; Relative potency ([2]; pH 7, 24 hours at 40° C., molar ratio anion:Asn 10): 0.523; Relative potency ([2]; pH 7, 24 hours at 40° C., molar ratio anion:Asn 10, listed as saccharin): enhanced stability |
| C[C@H](CCC(=O)O)[C@H]1CC[C@H]2[C@@H]3CC[C@@H]4C[C@H](O)CC[C@]4(C)[C@H]3C[C@H](O)[C@]12C [deoxycholic, deoxycholic acid] |  | pKa (first listed) [3]: 5.7 |
| C[C@H](CCC(=O)NCC(=O)O)[C@H]1CC[C@H]2[C@@H]3[C@H](O)C[C@@H]4C[C@H](O)CC[C@]4(C)[C@H]3C[C@H](O)[C@]12C [glycocholic] |  | pKa (first listed) [3]: 3.6 |
| CC(O)C(=O)O (stereo not shown) [lactic, lactic acid] |  | pKa (first listed) [3]: 3.95 |
| O=C(O)/C=C\C(=O)O [maleic] |  | pKa (first listed) [3]: 3.9 |
| CCCCCCCC/C=C\CCCCCCCC(=O)O [oleic] |  | pKa (first listed) [3]: 4.5 |
| -Chymotrypsinogen (1CGI): human protein | 2.4 days |  |
| Angiogenin (1A4Y): human protein | 3.2 days |  |
| Annexin V (1ANX): human protein | 33 days |  |
| Apoptosis regulator bax (1F16): human protein | 26 days |  |
| Argininosuccinate lyase (1AOS): human protein | 13 days |  |
| Carbonic anhydrase I (1HCB): human protein | 6.8 days |  |
| Creatine kinase ( 1QK1): human protein |  | T1/2 (half-life, deamidation) ([1]; pH 7.4): 84 days; T1/10 (time to 10% degradation by deamidation) ([1]; pH 7.4): 13 days |
| Cyclophilin A (1AWQ): human protein | 1.3 days |  |
| D-Glyceraldehyde-3-phosphate dehydrogenase (3GPD): human protein |  | T1/2 (half-life, deamidation) ([1]; pH 7.4): 4.2 days; T1/10 (time to 10% degradation by deamidation) ([1]; pH 7.4): 0.64 days |
| Fibroblast growth factor (2AFG): human protein | 3.2 days |  |
| GTP-binding protein (1DOA): human protein | 6.8 days |  |
| Growth hormone (1HGU): human protein | 7.8 days |  |

| Compound | T1/10 (time to 10% degradation by deamidation) [1, 4] | other results |
| --- | --- | --- |
| Growth hormone receptor (1A22): human protein | 0.36 days |  |
| Homeobox protein PAX-6 (6PAX): human protein | 5.9 days |  |
| Insulin (2HIU): human protein |  | T1/2 (half-life, deamidation) ([1]; pH 7.4): 260 days; T1/10 (time to 10% degradation by deamidation) ([1]; pH 7.4): 40 days |
| Interleukin-1 (2I1B): human protein | 43 days |  |
| Interleukin-4 (2CYK): human protein | 41 days |  |
| Interleukin-6 (1IL6): human protein | 8.5 days |  |
| Interleukin-8 (1IL8): human protein | 14 days |  |
| Interleukin-10 (2ILK): human protein | 3.8 days |  |
| Intestinal fatty acid binding protein (3IFB): human protein |  | T1/2 (half-life, deamidation) ([1]; pH 7.4): 7.6 days; T1/10 (time to 10% degradation by deamidation) ([1]; pH 7.4): 1.2 days |
| Lysophospholipase (1LCL): human protein | 2.4 days |  |
| Malic enzyme (1EFK): human protein |  | T1/2 (half-life, deamidation) ([1]; pH 7.4): 140 days; T1/10 (time to 10% degradation by deamidation) ([1]; pH 7.4): 21 days |
| Mitogen-activated protein kinase P38 (1WFC): human protein | 17 days |  |
| N-acetylgalactosamine-4-sulfatase (1FSU): human protein | 0.93 days |  |
| NAD(P)H dehydrogenase (1QBG): human protein | 53 days |  |
| Peptidyl-prolyl cis-trans isomerase (1F8A): human protein | 0.36 days |  |
| Platelet factor 4-HPF4 (1RHP): human protein | 35 days |  |
| Proinsulin (1EFE): human protein | 17 days |  |
| Stem cell factor (1EXZ): human protein | 27 days |  |
| Transforming growth factor-two (1KLA): human protein | 70 days |  |
| Triose phosphate isomerase (1HTI): human protein | 7.9 days |  |

Reference: US9394339B2, “Stabilized formulations of peptides and proteins protecting against non-enzymatic degradation” (Lyotropic Therapeutics, Inc., priority 2007, dated 2016)
